The series concerns the molecule itself. The series can be described thus: fluorescence correlation spectroscopy.

B1: Δ1-688 hTRPA1 (hTRPA1 without its N-terminal ankyrin repeat domain) (domain or fragment, human, UniProt O75762 689-1119, looked up)
chain: MVQNNRIELLNHPVCKEYLLMKWLAYGFRAHMMNLGSYCLGLIPMTILVVNIKPGMAFNSTGIINETSDHSEILDTTNSYLIKTCMILVFLSSIFGYCKEAGQIFQQKRNYFMDISNVLEWIIYTTGIIFVLPLFVEIPAHLQWQCGAIAVYFYWMNFLLYLQRFENCGIFIVMLEVILKTLLRSTVVFIFLLLAFGLSFYILLNLQDPFSSPLLSIIQTFSMMLGDINYRESFLEPYLRNELAHPVLSFAQLVSFTIFVPIVLMNLLIGLAVGDIAEVQKHASLKRIAMQVELHTSLEKKLPLWFLRKVDQKSTIVYPNKPRSGGMLFHIFCFLFCTGEIRQEIPNADKSLEMEILKQKYRLKDLTFLLEKQHELIKLIIQKMEIISETEDDDSHCSFQDRFKKEQMEQRNSRWNTVLRAVKAKTHHLEP
modifications: Ni-NTA Atto647N on the N-terminal His-tag (labeled copies in FCS)
On to B1, for which the “stoichiometry N” value stood at 4.

B2: purified human TRPA1 (hTRPA1) (natural protein, UniProt O75762 1-1119, looked up)
chain: MKRSLRKMWRPGEKKEPQGVVYEDVPDDTEDFKESLKVVFEGSAYGLQNFNKQKKLKRCDDMDTFFLHYAAAEGQIELMEKITRDSSLEVLHEMDDYGNTPLHCAVEKNQIESVKFLLSRGANPNLRNFNMMAPLHIAVQGMNNEVMKVLLEHRTIDVNLEGENGNTAVIIACTTNNSEALQILLKKGAKPCKSNKWGCFPIHQAAFSGSKECMEIILRFGEEHGYSRQLHINFMNNGKATPLHLAVQNGDLEMIKMCLDNGAQIDPVEKGRCTAIHFAATQGATEIVKLMISSYSGSVDIVNTTDGCHETMLHRASLFDHHELADYLISVGADINKIDSEGRSPLILATASASWNIVNLLLSKGAQVDIKDNFGRNFLHLTVQQPYGLKNLRPEFMQMQQIKELVMDEDNDGCTPLHYACRQGGPGSVNNLLGFNVSIHSKSKDKKSPLHFAASYGRINTCQRLLQDISDTRLLNEGDLHGMTPLHLAAKNGHDKVVQLLLKKGALFLSDHNGWTALHHASMGGYTQTMKVILDTNLKCTDRLDEDGNTALHFAAREGHAKAVALLLSHNADIVLNKQQASFLHLALHNKRKEVVLTIIRSKRWDECLKIFSHNSPGNKCPITEMIEYLPECMKVLLDFCMLHSTEDKSCRDYYIEYNFKYLQCPLEFTKKTPTQDVIYEPLTALNAMVQNNRIELLNHPVCKEYLLMKWLAYGFRAHMMNLGSYCLGLIPMTILVVNIKPGMAFNSTGIINETSDHSEILDTTNSYLIKTCMILVFLSSIFGYCKEAGQIFQQKRNYFMDISNVLEWIIYTTGIIFVLPLFVEIPAHLQWQCGAIAVYFYWMNFLLYLQRFENCGIFIVMLEVILKTLLRSTVVFIFLLLAFGLSFYILLNLQDPFSSPLLSIIQTFSMMLGDINYRESFLEPYLRNELAHPVLSFAQLVSFTIFVPIVLMNLLIGLAVGDIAEVQKHASLKRIAMQVELHTSLEKKLPLWFLRKVDQKSTIVYPNKPRSGGMLFHIFCFLFCTGEIRQEIPNADKSLEMEILKQKYRLKDLTFLLEKQHELIKLIIQKMEIISETEDDDSHCSFQDRFKKEQMEQRNSRWNTVLRAVKAKTHHLEP
modifications: Ni-NTA Atto647N on the N-terminal His-tag (labeled copies in FCS)
As for B2, the “stoichiometry N” value amounted to 4.

As usually defined, the stoichiometry N is a count of units in the complex or per binding partner.

Values taken from doi:10.1101/2020.03.19.999276 (bioRxiv, 2020).
